Data from the supplement of paper PMC7877785.
± gives the uncertainty stated by the source.

Assay: self-splicing fitness, log relative to wild type (ln ratio); higher = more splicing; Tetrahymena group I intron in knt gene, E. coli kanamycin selection, DiMSum; sequences stand for … in CUCUCU…GGAGGGAAAAGUUAUCAGGCAUGCACCUGGUAGCUAGUCUUUAAACCAAUAGAUUGCAUCGGUUUAAAAGGCAAGACCGUCAAAUUGCGGGAAAGGGGUCAACAGCCGUUCAGUACCAAGUCUCAGGGGAAACUUUGAGAUGGCCUUGCAAAGGGUAUGGUAAUAAGCUGACGGACAUGGUCCUAACCACGCAGCCAAGUCCUAAGUCAACAGAUCUUCUGUUGAUAUGGAUGCAGUUCACAGACUAAAUGUCGGUCGGGGAAGAUGUAUUCUUCUCAUAAGAUAUAGUCGGACCUCUCCUUAAUGGGAGCUAGCGGAUGAAGUGAUGCAACACUGGAGCCGCUGGGAACUAAUUUGUAUGCGAAAGUAUAUUGAUUAGUUUUGGAGUACUCGUGGUCG
In short: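 DiMSum derived fitness as the error-weighted combination of fold changes across replicates, kanamycin versus no kanamycin, normalised to wild type. E. coli BL21(DE3) held the library, which randomised all eight P1ex-region intron nucleotides within the knt kanamycin-resistance gene on pET-22b(+). Six replicate transformations grew overnight at 37°C or 30°C on LB agar with or without 25 μg/mL kanamycin, also containing 100 μg/mL carbenicillin, 50 μM IPTG and 0.2% rhamnose, and pooled colonies were amplicon-sequenced on an Illumina HiSeq 2500.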

Sequence	self-splicing fitness (ln) (30 °C)	self-splicing fitness (ln) (37 °C)
UUUAAGCAAUAUUACGGUAU	-3.05 ± 0.17	-0.94 ± 0.17
GAUAAGCAAUAUUACGUCGU	-1.68 ± 0.072	-0.373 ± 0.086
GAGUAGCAAUAUUACGCUUG	-0.859 ± 0.088	-0.313 ± 0.11
AGGCAGCAAUAUUACGGCGA	-0.378 ± 0.075	-0.154 ± 0.091
CGCCAGCAAUAUUACGCCGG	-3.13 ± 0.2	-3.21 ± 0.35
CAUGAGCAAUAUUACGAACG	-0.482 ± 0.082	-0.421 ± 0.088
GCUCAGCAAUAUUACGCAAU	-1.02 ± 0.078	0.487 ± 0.11
CUAGAGCAAUAUUACGUCAA	-3.76 ± 0.24	-2.23 ± 0.21
CCACAGCAAUAUUACGAAUU	-3.64 ± 0.18	-2.39 ± 0.17
CUCAAGCAAUAUUACGGGGC	-4.64 ± 0.41	-3.31 ± 0.33
UAUAAGCAAUAUUACGAAGU	-3.7 ± 0.35	-2.71 ± 0.38
AUGGAGCAAUAUUACGUGGA	-4.25 ± 0.4	-1.78 ± 0.29
CCACAGCAAUAUUACGCAUG	-1.64 ± 0.073	-0.648 ± 0.067
GCUAAGCAAUAUUACGAUGC	-3.28 ± 0.19	-2.18 ± 0.18
UCACAGCAAUAUUACGAUCU	-2.71 ± 0.1	-1.78 ± 0.11
UGGAAGCAAUAUUACGCGAC	-2.77 ± 0.37	
UGCCAGCAAUAUUACGACGG	-3.23 ± 0.12	-1.42 ± 0.13
GGGCAGCAAUAUUACGUCCG	-0.61 ± 0.091	-0.058 ± 0.14
AUCGAGCAAUAUUACGUACC	-3.76 ± 0.35	-1.53 ± 0.34
AUACAGCAAUAUUACGUUCC	-2.46 ± 0.15	-0.684 ± 0.14
UAUAAGCAAUAUUACGCUCC	-1.29 ± 0.24	-1.02 ± 0.28
AUCAAGCAAUAUUACGUGGU	-2.83 ± 0.2	-3.11 ± 0.21
AUGCAGCAAUAUUACGGGUU	-1.98 ± 0.075	-1.29 ± 0.096
ACUUAGCAAUAUUACGGCCA	-0.83 ± 0.13	-0.409 ± 0.19
CACCAGCAAUAUUACGGUUG	-2.85 ± 0.094	-1.04 ± 0.11

Sequence	self-splicing fitness (ln) (30 °C)	self-splicing fitness (ln) (37 °C)
CUUCAGCAAUAUUACGAUUG	-0.473 ± 0.045	0.038 ± 0.063
CCACAGCAAUAUUACGAAUC	-2.71 ± 0.18	-2.3 ± 0.3
CUUCAGCAAUAUUACGCAAG	-4.31 ± 0.26	-1.81 ± 0.2
GCUAAGCAAUAUUACGUUAA	-2.72 ± 0.16	-1.74 ± 0.18
CGCUAGCAAUAUUACGACAU	-3.31 ± 0.022	-2.06 ± 0.036
CCCCAGCAAUAUUACGCUUU	-4.4 ± 0.25	-3.36 ± 0.21
CAGGAGCAAUAUUACGGCGC	-3.61 ± 0.36	-3.31 ± 0.16
ACUAAGCAAUAUUACGGCUU	-2.2 ± 0.1	-1.27 ± 0.12
AGAUAGCAAUAUUACGGAUG	-2.96 ± 0.19	-2.3 ± 0.28
GCUGAGCAAUAUUACGAACU	-2.49 ± 0.33	-0.576 ± 0.21
CUUUAGCAAUAUUACGUGAG	-1.07 ± 0.11	-0.581 ± 0.14
UGGAAGCAAUAUUACGGGAU	-1.89 ± 0.17	-2.46 ± 0.28
CGUCAGCAAUAUUACGCUAG	-0.963 ± 0.098	-0.795 ± 0.15
CGGGAGCAAUAUUACGCAGG	-3.04 ± 0.36	-0.973 ± 0.27
AGGUAGCAAUAUUACGCUUU	-3.041 ± 0.022	-1.76 ± 0.036
AGCAAGCAAUAUUACGGGCC	-3.26 ± 0.23	-2.32 ± 0.22
GUAAAGCAAUAUUACGACGU	0.341 ± 0.11	0.169 ± 0.12
GGGCAGCAAUAUUACGUUCC	-2.68 ± 0.23	-2.58 ± 0.37
GCUGAGCAAUAUUACGUAGU	-2.86 ± 0.16	-1.71 ± 0.15
GUCUAGCAAUAUUACGCCUC	-0.0816 ± 0.058	-0.181 ± 0.068
CACUAGCAAUAUUACGGAAG	-0.706 ± 0.088	-0.266 ± 0.097
CAUUAGCAAUAUUACGUCGC	-2.38 ± 0.32	
UAUGAGCAAUAUUACGACAG		-1.78 ± 0.36
AAAAAGCAAUAUUACGCCUA	-0.792 ± 0.12	-0.855 ± 0.094
ACCAAGCAAUAUUACGAUGG	-1.76 ± 0.076	-0.995 ± 0.12

Sequence	self-splicing fitness (ln) (30 °C)	self-splicing fitness (ln) (37 °C)
CCAGAGCAAUAUUACGAGCC		-1.84 ± 0.42
CGUUAGCAAUAUUACGCUUA	-3.67 ± 0.28	-1.86 ± 0.25
CCCUAGCAAUAUUACGCAAA	-3.13 ± 0.24	-3.49 ± 0.42
AGGGAGCAAUAUUACGAGCU	-3.49 ± 0.29	
UGUAAGCAAUAUUACGAGGU	-4.29 ± 0.36	-2.63 ± 0.28
GCUAAGCAAUAUUACGCGCU	-2.47 ± 0.16	-1.57 ± 0.23
GAUAAGCAAUAUUACGAGCA	-2.12 ± 0.18	-0.853 ± 0.16
UAAUAGCAAUAUUACGAGUC	-2.97 ± 0.19	-3.77 ± 0.42
UUUCAGCAAUAUUACGAUUG	-0.724 ± 0.087	-0.057 ± 0.11
CUCGAGCAAUAUUACGAAGC	-3.7 ± 0.16	-3.28 ± 0.21
UCACAGCAAUAUUACGGCCU	-3.61 ± 0.25	-1.99 ± 0.15
CUGAAGCAAUAUUACGAGGA	-3.46 ± 0.17	-1.95 ± 0.2
GGCGAGCAAUAUUACGCUGA	-1.82 ± 0.2	-2.12 ± 0.18
ACUGAGCAAUAUUACGCUCA	-3.23 ± 0.24	-1.87 ± 0.18
UAGUAGCAAUAUUACGUGAC	-2.58 ± 0.15	-2.47 ± 0.18
CUAAAGCAAUAUUACGCCAC	-2.89 ± 0.49	
GGACAGCAAUAUUACGUGCA	-0.37 ± 0.085	-0.64 ± 0.09
CUGCAGCAAUAUUACGAGGU	-3.65 ± 0.14	-3.53 ± 0.2
CUUGAGCAAUAUUACGGUGU	-3 ± 0.13	-3.01 ± 0.18
GGUGAGCAAUAUUACGUAGU	-3.37 ± 0.23	-2.1 ± 0.29
ACACAGCAAUAUUACGGAGU	-2.39 ± 0.087	-2.01 ± 0.11
AAAGAGCAAUAUUACGGACC		-1.61 ± 0.3
UGUUAGCAAUAUUACGAGCG	0.176 ± 0.095	-0.175 ± 0.12
ACAGAGCAAUAUUACGGCGA	-3.14 ± 0.31	-1.17 ± 0.17
UGCUAGCAAUAUUACGGAAC	-1.04 ± 0.5	

Sequence	self-splicing fitness (ln) (30 °C)	self-splicing fitness (ln) (37 °C)
UCCAAGCAAUAUUACGCAAG	-3.86 ± 0.32	-2.51 ± 0.26
UGUUAGCAAUAUUACGUAAA	-0.887 ± 0.14	0.19 ± 0.21
AAGGAGCAAUAUUACGCACU	-1.53 ± 0.17	-0.454 ± 0.18
CGAAAGCAAUAUUACGCGCA	-0.957 ± 0.12	-0.435 ± 0.13
ACCGAGCAAUAUUACGGCAU	-1.09 ± 0.09	-0.529 ± 0.11
AUAAAGCAAUAUUACGCCCU	0.347 ± 0.15	0.95 ± 0.18
AGAAAGCAAUAUUACGGGGU	-3.8 ± 0.22	-2.34 ± 0.23
CACGAGCAAUAUUACGCAGA		-2.28 ± 0.26
CCAUAGCAAUAUUACGGCCU	-3.71 ± 0.37	
GUCUAGCAAUAUUACGAAUG	-2.56 ± 0.21	-1.43 ± 0.19
CGCUAGCAAUAUUACGGACA	-0.438 ± 0.14	-0.65 ± 0.13
AGGCAGCAAUAUUACGGAGU	-3.02 ± 0.22	-2.09 ± 0.16
UGCUAGCAAUAUUACGCAUG	-3.03 ± 0.34	-0.445 ± 0.19
ACCUAGCAAUAUUACGAGUC	-2.53 ± 0.3	-2.78 ± 0.48
GCGUAGCAAUAUUACGGGAA	-1.38 ± 0.27	-1.44 ± 0.34
CCGAAGCAAUAUUACGUCCU		-1.89 ± 0.28
CAUCAGCAAUAUUACGAAGU	-3.41 ± 0.18	-1.52 ± 0.14
UGUGAGCAAUAUUACGCCUU	-2.28 ± 0.4	
AUAUAGCAAUAUUACGGACU	-1.04 ± 0.11	-0.14 ± 0.16
CGUUAGCAAUAUUACGACCG	-1.13 ± 0.14	-0.193 ± 0.2
AGUGAGCAAUAUUACGCUCU		-2.1 ± 0.34
UACGAGCAAUAUUACGAUUA	-1.13 ± 0.14	-0.74 ± 0.12
AGCUAGCAAUAUUACGUUCU	-1.07 ± 0.062	-0.621 ± 0.08
CUCUAGCAAUAUUACGAAAU	-3.13 ± 0.21	-3.18 ± 0.27
